Experimental data as given in patent US20260139023A1 (Dana-Farber, published 2026).
Changes are numbered by the printed parent chain. In names and notes the source's numbering stands. Blank lines part the entries; values can stand above or below the binder they belong to.

Legend:
[1] = target: T1, αVβ5/Hsp90α complex (reconstituted from recombinant human αVβ5 ectodomain and recombinant human Hsp90α) (human, UniProt P06756 32-991; P18084 24-717; P07900 2-732, glycosylated); assay: fluorescence anisotropy competition, 50 nM A488-irisin-His and 125 nM αVβ5/Hsp90α, varied unlabeled untagged irisin (FIG. 1H)
T1 construct: range 32-991;range 24-717;mature; also called integrin/Hsp90α complex
From the text: (§1) The domain boundaries are as follows: αV, 32-991; β5, 24-717.

[2] = target: T1, αVβ5/Hsp90α complex (reconstituted from …); assay: fluorescence anisotropy competition: 50 nM A488-irisin-His probe and 125 nM αVβ5 (as αVβ5/Hsp90α complex), unlabeled untagged irisin varied 0-6000 nM
From the text: as §1

[3] = target: T1, αVβ5/Hsp90α complex (reconstituted from …); assay: fluorescence anisotropy competition: unlabeled WT irisin (0 to 6000 nM) against the labelled WT irisin probe on the αVβ5/Hsp90 complex; black curve
[4] = target: T2, recombinant human integrin αVβ5 ectodomain (human, UniProt P06756 32-991; P18084 24-717, glycosylated with heterogeneous glycans); assay: fluorescence anisotropy, direct binding: labelled irisin N45Q with varied aVß5 concentration (0 to 1000 nM); grey curve and grey label
T2 construct: range 32-991;range 24-717; Used in the solution assays (anisotropy, MST, HDX-MS, FRET); An introduced Cys and the rest of the HRV3C site would remain after cleavage; also called αVβ5 alone; αVβ5/Mn2+

[5] = target: T1, αVβ5/Hsp90α complex (reconstituted from …); assay: fluorescence anisotropy competition: unlabeled N45Q (0 to 6000 nM) against the labelled WT irisin probe on the αVβ5/Hsp90 complex; grey curve
[6] = target: T2, recombinant human integrin αVβ5 …; assay: fluorescence anisotropy, direct binding: labelled irisin WT with varied aVß5 concentration (0 to 1000 nM); black curve and black label
[7] = target: T3, recombinant human Hsp90α (purified from E. coli, untagged) (human, UniProt P07900 2-732); assay: fluorescence anisotropy binding assay with labelled irisin, Hsp90α without nucleotide or charged with ATP, AMP-PNP or ADP varied 0-2500 nM
T3 construct: mature; Tested as Apo and as ATP-, AMP-PNP- and ADP-charged forms; also called eHsp90α; Hsp90α-Apo

[8] = target: T2, recombinant human integrin αVβ5 …; assay: fluorescence anisotropy binding assay with labelled irisin, αVβ5 varied 0-1000 nM as the positive curve beside the Hsp90α curves; buffer and activation state of αVβ5 not given in the legend
[9] = target: T1, αVβ5/Hsp90α complex (reconstituted from …); assay: fluorescence anisotropy, 50 nM A488-irisin-His, varied αVβ5/Hsp90α complex, 1 mM MgCl2 and 1 mM CaCl2 (FIG. 1G)
From the text: as §1

[10] = target: T1, αVβ5/Hsp90α complex (reconstituted from …); assay: fluorescence anisotropy competition: 50 nM A488-irisin-His probe and 125 nM αVβ5 (as αVβ5/Hsp90α complex), unlabeled irisin-His varied 0-6000 nM
From the text: as §1

[11] = target: T2, recombinant human integrin αVβ5 …; assay: fluorescence anisotropy, 50 nM A488-irisin-His, αVβ5 in 1 mM MnCl2 (FIG. 4D)
[12] = target: T1, αVβ5/Hsp90α complex (reconstituted from …); assay: fluorescence anisotropy, 50 nM A488-irisin-His, αVβ5/Hsp90α complex in 1 mM MgCl2 and 1 mM CaCl2 (FIG. 4D)
[13] = target: T2, recombinant human integrin αVβ5 …; assay: fluorescence anisotropy competition, 50 nM A488-irisin-bac and 1000 nM αVβ5, varied unlabeled irisin-mam (irisin-His) (FIG. 7E); competition, unlabeled irisin-mam vs A488-irisin-bac (FIG. 7E)
[14] = target: T1, αVβ5/Hsp90α complex (reconstituted from …); assay: fluorescence anisotropy competition, 50 nM A488-irisin-His and 125 nM αVβ5/Hsp90α, varied unlabeled irisin-His (FIG. 1H)
From the text: as §1

[15] = target: T2, recombinant human integrin αVβ5 …; assay: fluorescence anisotropy competition: 50 nM A488-irisin-bac probe and 1000 nM αVβ5, unlabeled irisin-mam (irisin-His) varied 0-4000 nM
[16] = target: T1, αVβ5/Hsp90α complex (reconstituted from …); assay: summary sentence of Example 2: αVβ5 receptor activated by eHsp90α; αVβ5 activated by eHsp90α; rounded summary value
[17] = target: T4, clasped and tagged αVβ5 (recombinant human αVβ5 ectodomain with C-terminal coiled-coil clasp and affinity … (human, UniProt P06756 32-991; P18084 24-717, glycosylated); assay: BLI (Octet RED384), clasped and tagged αVβ5 on streptavidin sensors, 1 mM MgCl2 and 1 mM CaCl2; affinity-purified αVβ5 preparation that still held co-purified Hsp90α (FIG. 1B)
T4 construct: range 32-991;range 24-717; Used in BLI (streptavidin sensors) and TALON pull-downs; also called clasped αVβ5; immobilized clasped αVβ5; not shown: introduced Cys, HRV3C site, acidic α-helical coiled-coil and twin Strep-II tag; introduced Cys, HRV3C site, basic α-helical coiled-coil and 8xHis tag
Experimental: as §1
Biolayer Inferometry (BLI) measurements were conducted by Octet RED384. […] Data analysis HT software was used for the fitting and Kd calculations.

[18] = target: T2, recombinant human integrin αVβ5 …; assay: fluorescence anisotropy competition: 50 nM A488-irisin-bac probe and 1000 nM αVβ5, unlabeled irisin-bac varied 0-4000 nM
[19] = target: T2, recombinant human integrin αVβ5 …; assay: fluorescence anisotropy, A488-irisin-bac, αVβ5 varied 0-6000 nM, 1 mM MnCl2
[20] = target: T2, recombinant human integrin αVβ5 …; assay: fluorescence anisotropy competition, 50 nM A488-irisin-bac and 1000 nM αVβ5, varied unlabeled irisin-bac (FIG. 7E); competition, unlabeled irisin-bac vs A488-irisin-bac (FIG. 7E)
[21] = target: T2, recombinant human integrin αVβ5 …; assay: fluorescence anisotropy, A488-irisin-bac, varied αVβ5, 1 mM MnCl2 (FIG. 7D); direct binding, A488-irisin-bac (FIG. 7D)
[22] = target: T2, recombinant human integrin αVβ5 …; assay: fluorescence anisotropy competition, 50 nM A488-irisin-WT (bacterial) and 1000 nM αVβ5, varied unlabeled irisin-WT (FIG. 7F); competition, wild type bacterial dimer, run beside R75E (FIG. 7F)
[23] = target: T2, recombinant human integrin αVβ5 …; assay: fluorescence anisotropy competition: 50 nM A488-irisin-WT probe and 1000 nM αVβ5, unlabeled irisin-WT varied 0-4000 nM
[24] = target: T2, recombinant human integrin αVβ5 …; assay: fluorescence anisotropy, compared with irisin-mam on αVβ5
[25] = target: T2, recombinant human integrin αVβ5 …; assay: fluorescence anisotropy competition, 50 nM A488-irisin-WT (bacterial) and 1000 nM αVβ5, varied unlabeled irisin-R75E (FIG. 7F); competition, R75E monomer mutant (FIG. 7F)
[26] = target: T2, recombinant human integrin αVβ5 …; assay: fluorescence anisotropy competition: 50 nM A488-irisin-WT probe and 1000 nM αVβ5, unlabeled irisin-R75E varied 0-4000 nM

B1: untagged irisin (wild-type, glycosylated recombinant irisin from mammalian cells) (ligand)
chain: DSPSAPVNVTVRHLKANSAVVSWDVLEDEVVIGFAISQQKKDVRMLRFIQEVNTTTRSCALWDLEEDTEYIVHVQAISIQGQSPASEPVLFKTPREAEKMASKNKDEVTMKE
modifications: N-glycosylated at N36, N45 and N81 (numbers as printed)
notes: also called unlabeled and untagged irisin; WT irisin
Kd [1]: 50 nM
IC50 [2]: 477 nM
IC50 [3]: 440 nM
Ki [3]: 56 nM

B2: irisin N45Q mutant (irisin glycosylation mutant, recombinant, from mammalian Expi293 cells) (ligand)
chain: B1 chain with N17Q
modifications: glycosylated at positions 36 and 81; position 45 is Q, not N-glycosylated
Kd [4]: 32 nM
IC50 [5]: 35 nM
Ki [5]: 9 nM

B4: irisin-bac (non-glycosylated irisin dimer produced in bacteria) (ligand, UniProt Q8K4Z2 61-171, looked up)
chain: SPSAPVNVTVRHLKANSAVVSWDVLEDEVVIGFAISQQKKDVRMLRFIQEVNTTTRSCALWDLEEDTEYIVHVQAISIQGQSPASEPVLFKTPREAEKMASKNKDEVTMKE
modifications: Alexa Fluor 488 label where used as probe
notes: also called A488-irisin-bac
IC50 [18]: 1190 nM
Kd [19]: 317 nM
Kd [20]: 294 nM
Kd [21]: 256 nM
Kd [22]: 299 nM
IC50 [23]: 1270 nM
fold weaker affinity than irisin-mam [24]: ~8 fold

Second part, the binder after the results:

Kd [6]: 6 nM
binding result [7]: no binding (tested: 2500 nM)
Kd [8]: 43 nM
Kd [9]: 31 nM
IC50 [10]: 499 nM
Kd [11]: 28 nM
Kd [12]: 37 nM
Kd [13]: 35 nM
Kd [14]: 52 nM
IC50 [15]: 165 nM
Kd [16]: ~30 nM
Kd [17]: 212 nM
B3: irisin-His (wild-type, glycosylated recombinant irisin, His tagged, from mammalian cells) (ligand)
chain: DSPSAPVNVTVRHLKANSAVVSWDVLEDEVVIGFAISQQKKDVRMLRFIQEVNTTTRSCALWDLEEDTEYIVHVQAISIQGQSPASEPVLFKTPREAEKMASKNKDEVTMKEHHHHHHHHHHRDPLEVLFQ
modifications: N-glycosylated at N36, N45 and N81 (numbers as printed); Alexa Fluor 488, 555 or 647 label where the assay says so
notes: Monomer by SEC-MALS; also called irisin-mam; A488-irisin-His

Kd [25]: 42 nM
IC50 [26]: 198 nM
B5: irisin-R75E (non-glycosylated irisin monomer mutant R75E from bacteria) (ligand, UniProt Q8K4Z2-1 30-140, looked up)
chain: B4 chain with R46E
notes: also called monomeric mutant
